Drawing on the supplement of paper PMC9732359, this text covers protein stability index for 37 sequences.

± gives the uncertainty stated by the source.

This data set can be described thus: protein stability index of a GFP-peptide fusion (yeast GPS) (PSI 1-4); higher = more stable; sorted into four equal gates, so the index is relative within each strain. The essentials: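 Mid-log yeast cultures in leucine-free medium, carrying a pooled plasmid library, were sorted into four equal gates by their GFP/Cherry fluorescence ratio. Each plasmid expressed Cherry along with GFP fused upstream of a tiled 17-residue yeast protein peptide. Plasmids recovered from each gate were PCR-amplified and Illumina-sequenced, with reads assigned to strains by barcodes. The protein stability index was obtained by summing each gate's read frequency weighted by its gate number.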

Consider ELKINLPLTEHKSPNLS [SRB4], for which the protein stability index is, setting by setting: (doa10∆) 2.93 ± 0.077; (pdr5∆) 3.17 ± 0.051; (san1∆) 2.87 ± 0.041; (ubr1∆) 2.98 ± 0.058.

FASIPVSNSISRLGEEN [SNU114]: the protein stability index worked out at 2.31 ± 0.058 (doa10∆), 2.63 ± 0.051 (pdr5∆), 1.81 ± 0.081 (san1∆) and 2.48 ± 0.059 (ubr1∆).

In the case of IDESMPDTAIDSQMDEA [GRR1], the protein stability index came out at 3.01 ± 0.093 (doa10∆), 3.08 ± 0.08 (pdr5∆), 2.85 ± 0.078 (san1∆) and 3.06 ± 0.059 (ubr1∆).

Turning to AVINIRDDGKRELLVEG [RPO31], the protein stability index is, setting by setting: (doa10∆) 3.56 ± 0.2; (pdr5∆) 3.06 ± 0.22; (ubr1∆) 3.14 ± 0.1.

As for ADTGRDDTKETVYISSI [RPN11], the protein stability index came to 3.12 ± 0.09 (doa10∆), 3.28 ± 0.1 (pdr5∆), 3.01 ± 0.073 (san1∆) and 3.16 ± 0.053 (ubr1∆).

As for FVSSGFDTSIKLDIISD [RPN14], the protein stability index (doa10∆) amounted to 2.39 ± 0.045, the protein stability index (pdr5∆) turned out to be 2.53 ± 0.047, the protein stability index (san1∆) came out at 2.23 ± 0.057 and the protein stability index (ubr1∆) came out at 2.44 ± 0.035.

As to SKQVTDYYQSIYAKYGA [FAS2], the protein stability index reads like this: (doa10∆) 2.73 ± 0.051; (pdr5∆) 2.67 ± 0.052; (san1∆) 2.54 ± 0.057; (ubr1∆) 2.77 ± 0.041.

The sequence ELPKKLLNLPPFQVSSF [SRB8] had a protein stability index (doa10∆) of 1.77 ± 0.039, a protein stability index (pdr5∆) of 1.85 ± 0.034, a protein stability index (san1∆) of 1.9 ± 0.055 and a protein stability index (ubr1∆) of 1.78 ± 0.041.

As to AKETHTKPSETPATIVK [YOR098C/NUP1], the protein stability index runs as follows: (doa10∆) 3.28 ± 0.092; (pdr5∆) 3.17 ± 0.066; (san1∆) 2.87 ± 0.064; (ubr1∆) 3.12 ± 0.066.

On to QTFNFDSFENYFNQLKP [RPN12], for which the protein stability index runs as follows: (doa10∆) 2.76 ± 0.047; (pdr5∆) 2.9 ± 0.064; (san1∆) 3.05 ± 0.052; (ubr1∆) 3 ± 0.046.

In the case of GRVKYTKRQKHFAWLPT [POP1], the protein stability index reads like this: (doa10∆) 2.27 ± 0.051; (pdr5∆) 2.48 ± 0.081; (san1∆) 2.3 ± 0.084; (ubr1∆) 2.55 ± 0.039.

With ICKNCSAILLSETDKRQ [RPO31], the protein stability index came to 2.59 ± 0.086 (doa10∆), 2.85 ± 0.058 (pdr5∆), 2.81 ± 0.068 (san1∆) and 2.96 ± 0.041 (ubr1∆).

For LQNCCIIDVGTHHTDII [ARP9], the protein stability index is, setting by setting: (doa10∆) 1.43 ± 0.11; (pdr5∆) 1.9 ± 0.07; (san1∆) 1.51 ± 0.15; (ubr1∆) 2.28 ± 0.066.

Sequence IKVENLNDTTEKSKALE [SMC2] registered a protein stability index (doa10∆) of 3.07 ± 0.082, a protein stability index (pdr5∆) of 3.3 ± 0.092, a protein stability index (san1∆) of 3.35 ± 0.052 and a protein stability index (ubr1∆) of 3.25 ± 0.059.

Consider KFGYILCVLDYDNIDIQ [RPB7], for which the protein stability index by setting is: (doa10∆) 2.02 ± 0.1; (pdr5∆) 2.08 ± 0.09; (san1∆) 3.13 ± 0.11; (ubr1∆) 2.04 ± 0.13.

With NHKIIARVKAFDRHCNM [SMD2], the protein stability index reads like this: (doa10∆) 1.7 ± 0.07; (pdr5∆) 1.72 ± 0.08; (san1∆) 2.1 ± 0.086; (ubr1∆) 1.93 ± 0.058.

Regarding NDPEILKKIASIPNLFP [SWI1], the protein stability index was found to be 2.36 ± 0.049 (doa10∆), 2.19 ± 0.036 (pdr5∆), 2.36 ± 0.058 (san1∆) and 2.53 ± 0.035 (ubr1∆).

As for ISNLTQEQVQDYVNKTN [FAS1], the protein stability index is, setting by setting: (doa10∆) 2.34 ± 0.047; (pdr5∆) 2.81 ± 0.043; (san1∆) 2.82 ± 0.057; (ubr1∆) 2.27 ± 0.033.

For the sequence LRACAANVDQISFLEPI [YMR129W/POM152], the protein stability index (doa10∆) is 3.06 ± 0.072, the protein stability index (pdr5∆) is 2.98 ± 0.07, the protein stability index (san1∆) is 2.92 ± 0.05 and the protein stability index (ubr1∆) worked out at 2.97 ± 0.046.

KNDKLIKIEDFVDDMLR [SNF5]: the protein stability index came to 2.88 ± 0.063 (doa10∆), 2.73 ± 0.066 (pdr5∆), 1.98 ± 0.078 (san1∆) and 2.68 ± 0.07 (ubr1∆).

As to KSSNDTIEHAADITDGN [YCG1], the protein stability index was found to be 2.98 ± 0.25 (doa10∆), 3.16 ± 0.2 (pdr5∆), 3.23 ± 0.17 (san1∆) and 3.3 ± 0.15 (ubr1∆).

On to GEQIIVHPVNEREPVPL [RRP45], for which the protein stability index runs as follows: (doa10∆) 2.85 ± 0.12; (pdr5∆) 3.35 ± 0.12; (ubr1∆) 2.9 ± 0.17.

CELLKLTNEDPPGLMYL [SSN2] yielded a protein stability index (doa10∆) of 2.85 ± 0.18, a protein stability index (pdr5∆) of 3.06 ± 0.19, a protein stability index (san1∆) of 3.26 ± 0.12 and a protein stability index (ubr1∆) of 3.36 ± 0.11.

Sequence DSIIDNIVKLCFVHRYK [IRR1] displayed a protein stability index (doa10∆) of 2.57 ± 0.11, a protein stability index (pdr5∆) of 1.95 ± 0.042, a protein stability index (san1∆) of 1.99 ± 0.11 and a protein stability index (ubr1∆) of 2.08 ± 0.035.

As for LKIIYTGLCSFDYSVIL [YJL039C/NUP192], the protein stability index by setting is: (doa10∆) 1.73 ± 0.081; (pdr5∆) 1.5 ± 0.057; (san1∆) 1.6 ± 0.11; (ubr1∆) 1.59 ± 0.071.

For SKYLIKQIDIPNFNVEI [ECM29], the protein stability index (doa10∆) was 1.57 ± 0.069, the protein stability index (pdr5∆) is 2.01 ± 0.091, the protein stability index (san1∆) turned out to be 2.57 ± 0.072 and the protein stability index (ubr1∆) amounted to 2.39 ± 0.059.

Sequence EKASRQQRKQKKNRDKK [RPS24A] yielded a protein stability index (doa10∆) of 3.44 ± 0.094, a protein stability index (pdr5∆) of 3.17 ± 0.075, a protein stability index (san1∆) of 3.25 ± 0.044 and a protein stability index (ubr1∆) of 3.32 ± 0.083.

For the sequence CYVGLLTAIPILLEPIY [SNU114], the protein stability index runs as follows: (doa10∆) 1.31 ± 0.045; (pdr5∆) 1.23 ± 0.035; (san1∆) 1.28 ± 0.064; (ubr1∆) 1.34 ± 0.038.

Consider YFYDLDVLKDGENNINF [BRN1], for which the protein stability index (doa10∆) came to 3.57 ± 0.22, the protein stability index (pdr5∆) worked out at 3.4 ± 0.15, the protein stability index (san1∆) came to 3.54 ± 0.079 and the protein stability index (ubr1∆) was 3.29 ± 0.11.

As to CYFRDFEYCRIDGSTSH [ISW2], the protein stability index runs as follows: (doa10∆) 2.51 ± 0.071; (pdr5∆) 2.5 ± 0.079; (san1∆) 2.48 ± 0.069; (ubr1∆) 1.88 ± 0.042.

Sequence SDIVLDKKVTLITSEMF [SIN4] had a protein stability index (doa10∆) of 1.69 ± 0.085, a protein stability index (pdr5∆) of 1.92 ± 0.13, a protein stability index (san1∆) of 1.79 ± 0.11 and a protein stability index (ubr1∆) of 2.14 ± 0.073.

For the sequence KPSNGKGSRKSSKAATP [SNF12], the protein stability index was determined as 3 ± 0.085 (doa10∆), 3.02 ± 0.076 (pdr5∆), 3.24 ± 0.079 (san1∆) and 3.239 ± 0.027 (ubr1∆).

For NASDALKGRVVEVCLAD [RPS1B], the protein stability index by setting is: (doa10∆) 3.34 ± 0.069; (pdr5∆) 3.33 ± 0.057; (san1∆) 3.12 ± 0.051; (ubr1∆) 3.03 ± 0.054.

For PELGDKFSSRHGQKGVC [RET1], the protein stability index is, setting by setting: (doa10∆) 3.26 ± 0.12; (pdr5∆) 3.42 ± 0.12; (san1∆) 2.99 ± 0.14; (ubr1∆) 3.09 ± 0.1.

TNHSAAASTPTTTATPH [PGD1]: the protein stability index reads like this: (doa10∆) 2.91 ± 0.033; (pdr5∆) 3.026 ± 0.029; (san1∆) 2.99 ± 0.027; (ubr1∆) 2.939 ± 0.023.

In the case of KEAVFKSLGVKSLGGGA [FAS2], the protein stability index reads like this: (doa10∆) 3.26 ± 0.078; (pdr5∆) 3.36 ± 0.12; (san1∆) 3.25 ± 0.069; (ubr1∆) 3.41 ± 0.092.

As for AKLIRSAIEHTTLKSVT [RPO21], the protein stability index (doa10∆) was determined as 3.46 ± 0.15, the protein stability index (pdr5∆) is 2.96 ± 0.2, the protein stability index (san1∆) was 3.19 ± 0.19 and the protein stability index (ubr1∆) turned out to be 3.04 ± 0.12.
